Experimental findings from publication PMC11940275 are described below.

The target in this data set is SARS-CoV-2 spike protein, Omicron BA.2 (on SmBiT-BA.2 pseudovirus) (SARS-CoV-2 Omicron BA.2) (UniProt P0DTC2).

In general, IC50 refers to the concentration that inhibits the measured activity by half.

The sequence “ATCCAGAGTGACGCAGCATCGAGTGGCTTGTTTGTAATGTAGGGTTCCGGTCGTGGGTTGGACACGGTGGCTTAGT [76-mer aptamer]” yielded a concentration for half-maximal inhibition (IC50) of 3.61 µM. “ATCCAGAGTGACGCAGCATTTCATCGGGTCCAAAAGGGGCTGCTCGGGATTGCGGATATGGACACGT [67-mer aptamer]” yielded an IC50 of 1.64 µM.

The sequence “CGCAGCACCCAAGAACAAGGACTGCTTAGGATTGCGATAGGTTCGG [46-mer aptamer]” gave an IC50 of 0.7 µM.
